Data: patent publication US6500431B1, “Inhibitors of angiogenesis and tumor growth” (University of Southern California, priority 1998, dated 2002)

Experiments:
[1] = system: endothelial cells (HUVEC); assay: Growth inhibition of endothelial cells; type: cell-based
Procedure: FIG. 1D: Activity of n-terminus decapeptide (DVCQDCIQMV; SEQ ID NO 21).
FIG. 1E: Activity of N-terminus pentapeptide (DVCQC; SEQ ID NO: 28).
By SDS-PAGE, the bacterial product was smaller than the eukaryotic protein. Because prokaryotically expressed proteins are not glycosylated, the difference in molecular weights probably represents the presence of carbohydrate in the eukaryotic protein. Recombinant proteins were then tested in KS, endothelial and control cell lines. Activity was found only in KS cell lines and endothelial cells.

KS Y-1 cells = assay: KS cell migration assay, fibronectin-coated transwell; type: cell-based; conditions: chemotaxis induced by VEGF or bFGF
Procedure: The assays were done in double chamber wells separated by […] membrane. Chemotaxis was induced by bFGF (25 ng/mL) in the lower chamber. Endothelial cells or KS cells (5×10^4/mL) were placed in the upper chamber in the presence and absence of test polypeptides. Taxol at 10 ng/mL was used as a known inhibitor of migration. Cell migration across the membrane was quantitated after an overnight incubation.
Angiogenesis is mediated by complex biochemical processes including degradation of the basement membrane under existing blood vessel endothelial cells, followed by proliferation and migration of endothelial cells, followed by formation of capillary loops, and recruitment of vascular smooth muscle cells to encase the newly formed vessels and provide stability. KS and endothelial cell migration in the presence of Saposin B was studied in transwell culture plates with 8 μm pore membranes (Costar, Cambridge, Mass.).
Briefly, wells were coated with fibronectin (25 μg/mL) overnight, and endothelial cells or KS cells were plated in the upper chamber with 100 μL of DMEM/0.4% FCS. 500 μL of DMEM/0.4% FCS was added to the lower chamber and incubated at 37° C. for one hour. The test polypeptides, at various concentrations, were added to the upper chamber, and chemotactic agents (VEGF or bFGF at 20 ng/mL) were added to the lower cell-culture chambers. The plates were incubated for 5 hr at 37° C. and the cells crossing the fibronectin-coated membrane were counted after wiping the cells off the membrane in the upper chamber with a cotton swab.
The cells that traversed the membrane were fixed with Diff-Quik stain according to the manufacturer's instruction (Dade Diagnostics Inc., Aguada, PR). The cells were counted under a microscope at 320× in four randomly selected fields. The experiments were done in duplicate and repeated at least three times.

[2] = system: Lewis lung carcinoma, melanoma (B16), T-cell lymphoma (EL-4), KS Y-1; assay: Syngeneic tumors in C57BL/6 mice, KS Y-1 in nude mice; type: in vivo; conditions: 2.5 mg/kg the day following implantation; two weeks
Procedure: FIG. 4: Inhibition of tumor growth in mice. C57BL/6 mice were implanted with Lewis lung carcinoma, melanoma (B16), and T-cell lymphoma (EL4). KS Y-1 was implanted in nude mice as a positive control. One day after implantation 2.5 mg/kg of Saposin B was injected into the mice subcutaneously.
To determine whether this anti-tumor effect was reproducible with different classes of syngeneic tumors, C57BL/6 mice were implanted with Lewis lung carcinoma, melanoma (B16), and T-cell lymphoma (EL-4) cell lines. KS Y-1 was implanted into nude mice for a positive control. The day following tumor implantation, 2.5 mg/kg of Saposin B was administered intraperitoneally. Tumor size was measured three times a week for two weeks at which time the mice were sacrificed for analysis. […] See, FIG. 4

KS Y-1 tumor = assay: Established KS tumors in mice; type: in vivo
Procedure: FIG. 5: Effect of two daily doses of Saposin B on growth of an established KS Y-1 tumor. The arrow marks initiation of daily subcutaneous dosing.
In further experiments, KS tumors were allowed to grow for five days before treatment with Saposin B (1 and 5 mg/kg daily at a distal site from the timor). In control mice, tumors grew to a weight of 555±mg. […] Tumors excised at the conclusion of the experiments were also examined for apoptosis, blood vesel density, andmitotic index. […] Thus, contrary to the results in vitro, Saposin B has an inhibitory effect against non-KS tumors.

B1: Saposin B: polypeptide fragment of Prosaposin (positions 190 to 269), SEQ ID NO:2; recombinantly expressed (protein)
chain: GDVCQDCIQMVTDIQTAVRTNSTFVQALVEHVKEECDRLGPGMADICKNYISQYSEIAIQMMMHMQPKEICALVGFCDEVK
For B1, the “growth inhibition of endothelial cells” value ([1]; FIG. 1, 1D, 1E) was “dose dependent growth inhibition”, the “growth inhibition of proliferating versus quiescent endothelial cells (HUVEC)” value ([1]; FIG. 1B) was “Only proliferating and not quiescent endothelial cells (HUVEC) show dose dependent growth inhibition” and the “inhibition of KS cell migration” value (KS Y-1 cells) was “compete inhibition of cell migration”. For the same molecule, the tumor growth [2] was “profound inhibition of tumor growth”, the “apoptosis in excised tumors” value (KS Y-1 tumor; 1 and 5 mg/kg daily) was “increase in apoptosis” and the “blood vessel density in excised tumors” value (KS Y-1 tumor; 1 and 5 mg/kg daily) was “decrease in blood vessel density”. For the same molecule, the “weights of excised tumors relative to controls” value (KS Y-1 tumor; treatment from day five, 1 and 5 mg/kg daily at a distal site) was “approximately 23%”.
